Source: doi:10.1101/857730

Biological target: Photorhabdus luminescens TcdA1 (TcA subunit of the Tc toxin) (P. luminescens) (UniProt Q9RN43)
Assay: cryo-EM structure

For “Photorhabdus luminescens TcdA1 (TcA subunit of the Tc toxin), Q9RN43 1-2516”, the stoichiometry N was 5.
